Data from paper PMC4267625, “Ubiquitin recognition by FAAP20 expands the complex interface beyond the canonical UBZ domain” (Nucleic Acids Research, 2014).

Biological target: T1, human ubiquitin, wild type (human, UniProt P0CG48 1-76)
T1 construct: ubiquitin, human; the mature ubiquitin unit cut from its precursor; also called WT ubiquitin; source: E. coli BL21 STAR (DE3), purified (Ni-NTA, thrombin cleavage, benzamidine column, second Ni-NTA, Superdex 75); not shown: His6, N-terminal, cleaved
Test: ITC; ubiquitin (2-3 mM) titrated into FAAP20 (0.2-0.3 mM); 25 mM sodium phosphate, 100 mM KCl, pH 7.0; 25°C; 28 injections of 10 μl; one-site binding fit
Details: both partners purified

Row | Binder | Kd
1 | GAAALRSCPMCQKEFAPRLTQLDVDSHLAQCLAESTEDVTW (domain or fragment, UniProt Q6NZ36 140-180, looked up, ends at the C-terminal W180; ZnSO4 was added at induction; 15N/13C-labelled for NMR; also called WT FAAP20; apo FAAP20; source: E. coli BL21 STAR (DE3), purified (Ni-NTA, TEV cleavage, second Ni-NTA, Superdex 75); not shown: His10, N-terminal, cleaved; GB1, N-terminal, cleaved) [human FAAP20 UBZ (residues 140-180 of FAAP20 isoform 2), wild type] | 9.26 µM
2 | GAAALRSCPMCQKEFAPRLTQLDVDSHLYQCLAESTEDVTW (domain or fragment, UniProt Q6NZ36 140-180, looked up, source: E. coli BL21 STAR (DE3), purified (Ni-NTA, TEV cleavage, second Ni-NTA, Superdex 75); not shown: His10, N-terminal, cleaved; GB1, N-terminal, cleaved) [human FAAP20 UBZ A168Y] | > 600 µM
3 | GAAALRSCPMCQKEFAPRLTQLDVASHLAQCLAESTEDVTW (domain or fragment, UniProt Q6NZ36 140-180, looked up, source: E. coli BL21 STAR (DE3), purified (Ni-NTA, TEV cleavage, second Ni-NTA, Superdex 75); not shown: His10, N-terminal, cleaved; GB1, N-terminal, cleaved) [human FAAP20 UBZ D164A] | > 600 µM
4 | GAAALRSCPMCQKEFAPRLTQLDVDSHLAQCLAESTEDVTA (domain or fragment, UniProt Q6NZ36 140-180, looked up, also called FAAP20 W180A mutant; source: E. coli BL21 STAR (DE3), purified (Ni-NTA, TEV cleavage, second Ni-NTA, Superdex 75); not shown: His10, N-terminal, cleaved; GB1, N-terminal, cleaved) [human FAAP20 UBZ W180A] | > 600 µM
5 | GAAALRSCPMCQKEFAPRLTQLDVDSHLAQCAAESTEDVTW (domain or fragment, UniProt Q6NZ36 140-180, looked up, source: E. coli BL21 STAR (DE3), purified (Ni-NTA, TEV cleavage, second Ni-NTA, Superdex 75); not shown: His10, N-terminal, cleaved; GB1, N-terminal, cleaved) [human FAAP20 UBZ L171A] | 529 µM
